Assay results reported in patent US20260092103A1 (ALBERT EINSTEIN COLLEGE OF MEDICINE, published 2026).

Target: Recombinant Mtb protein GroEL2 (Mycobacterium tuberculosis, UniProt P9WPE7 1-540)
Sequence (P9WPE7 whole entry): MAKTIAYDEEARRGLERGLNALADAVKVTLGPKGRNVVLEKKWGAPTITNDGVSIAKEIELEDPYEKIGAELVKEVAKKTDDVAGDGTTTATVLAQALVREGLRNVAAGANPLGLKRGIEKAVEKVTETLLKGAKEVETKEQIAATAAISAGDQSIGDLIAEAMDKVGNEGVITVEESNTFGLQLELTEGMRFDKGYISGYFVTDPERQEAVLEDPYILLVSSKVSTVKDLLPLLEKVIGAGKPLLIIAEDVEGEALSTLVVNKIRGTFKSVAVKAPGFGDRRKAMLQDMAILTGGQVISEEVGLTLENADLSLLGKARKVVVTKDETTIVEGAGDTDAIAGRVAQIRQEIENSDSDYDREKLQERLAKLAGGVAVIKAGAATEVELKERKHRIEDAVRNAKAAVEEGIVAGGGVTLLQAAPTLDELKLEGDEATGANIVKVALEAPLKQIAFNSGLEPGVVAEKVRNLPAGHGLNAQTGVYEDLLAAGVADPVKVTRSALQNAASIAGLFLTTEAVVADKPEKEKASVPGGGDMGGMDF

B1: anti-GroEL2 antibody 103.11 (antibody, V domains shown)
VH: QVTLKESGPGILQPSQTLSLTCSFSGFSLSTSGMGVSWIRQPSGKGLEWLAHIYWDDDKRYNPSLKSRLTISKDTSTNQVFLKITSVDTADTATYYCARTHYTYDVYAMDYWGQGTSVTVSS
VL: QIVLTQSPAIMSASLGERVTMTCTASSSVSSSYLHWYRQKPGSSPKLWIYSASNLASGVPPRFSGSGSGTSYSLTISNMEAEDAATYYCHQYHRSPWTFGGGTKLEIKR
- EC50 (read off the curve): ~0.02 µg/mL
